From CN101309933A (MEDIMMUNE LLC, dated 2008)

Assays:
[1] = target: T1, 人EphA2 (expressed on cells) (human, UniProt P29317 24-976); test: flow cytometry on cell lines, 1 μg antibody, PE goat anti-human IgG
T1 construct: whole, on cells; also called human EphA2; EphA2 on PC3, HUVEC and other human cell lines

[2] = target: T2, 小鼠EphA2 (expressed on cells) (mouse, UniProt Q03145 26-977); test: as above
T2 construct: whole, on cells; also called mouse EphA2; EphA2 on CT26, 4T1
T2 sequence (Q03145 26-977): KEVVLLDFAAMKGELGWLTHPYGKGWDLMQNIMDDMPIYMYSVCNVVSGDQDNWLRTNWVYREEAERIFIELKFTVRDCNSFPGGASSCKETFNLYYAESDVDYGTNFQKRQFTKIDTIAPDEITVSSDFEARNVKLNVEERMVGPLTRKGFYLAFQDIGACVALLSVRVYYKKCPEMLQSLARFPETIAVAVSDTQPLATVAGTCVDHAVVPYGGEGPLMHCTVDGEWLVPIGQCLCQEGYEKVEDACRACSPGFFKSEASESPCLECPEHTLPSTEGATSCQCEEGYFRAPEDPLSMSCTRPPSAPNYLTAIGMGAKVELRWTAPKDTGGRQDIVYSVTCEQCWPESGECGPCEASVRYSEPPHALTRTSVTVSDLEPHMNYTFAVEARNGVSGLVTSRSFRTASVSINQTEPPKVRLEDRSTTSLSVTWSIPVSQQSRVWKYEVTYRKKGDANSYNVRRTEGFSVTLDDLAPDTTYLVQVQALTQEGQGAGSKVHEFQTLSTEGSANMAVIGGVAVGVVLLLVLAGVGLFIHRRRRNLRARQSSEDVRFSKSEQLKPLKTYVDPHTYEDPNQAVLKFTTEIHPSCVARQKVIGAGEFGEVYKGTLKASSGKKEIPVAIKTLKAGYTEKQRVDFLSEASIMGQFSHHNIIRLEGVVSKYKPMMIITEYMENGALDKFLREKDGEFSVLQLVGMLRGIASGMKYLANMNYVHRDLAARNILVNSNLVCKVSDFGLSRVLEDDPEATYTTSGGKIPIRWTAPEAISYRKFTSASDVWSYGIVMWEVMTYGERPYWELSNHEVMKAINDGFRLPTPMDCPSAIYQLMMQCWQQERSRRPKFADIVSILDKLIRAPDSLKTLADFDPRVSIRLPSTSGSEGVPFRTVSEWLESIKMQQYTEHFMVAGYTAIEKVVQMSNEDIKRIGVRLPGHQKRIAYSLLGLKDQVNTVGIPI

T1 sequence (P29317 24-976): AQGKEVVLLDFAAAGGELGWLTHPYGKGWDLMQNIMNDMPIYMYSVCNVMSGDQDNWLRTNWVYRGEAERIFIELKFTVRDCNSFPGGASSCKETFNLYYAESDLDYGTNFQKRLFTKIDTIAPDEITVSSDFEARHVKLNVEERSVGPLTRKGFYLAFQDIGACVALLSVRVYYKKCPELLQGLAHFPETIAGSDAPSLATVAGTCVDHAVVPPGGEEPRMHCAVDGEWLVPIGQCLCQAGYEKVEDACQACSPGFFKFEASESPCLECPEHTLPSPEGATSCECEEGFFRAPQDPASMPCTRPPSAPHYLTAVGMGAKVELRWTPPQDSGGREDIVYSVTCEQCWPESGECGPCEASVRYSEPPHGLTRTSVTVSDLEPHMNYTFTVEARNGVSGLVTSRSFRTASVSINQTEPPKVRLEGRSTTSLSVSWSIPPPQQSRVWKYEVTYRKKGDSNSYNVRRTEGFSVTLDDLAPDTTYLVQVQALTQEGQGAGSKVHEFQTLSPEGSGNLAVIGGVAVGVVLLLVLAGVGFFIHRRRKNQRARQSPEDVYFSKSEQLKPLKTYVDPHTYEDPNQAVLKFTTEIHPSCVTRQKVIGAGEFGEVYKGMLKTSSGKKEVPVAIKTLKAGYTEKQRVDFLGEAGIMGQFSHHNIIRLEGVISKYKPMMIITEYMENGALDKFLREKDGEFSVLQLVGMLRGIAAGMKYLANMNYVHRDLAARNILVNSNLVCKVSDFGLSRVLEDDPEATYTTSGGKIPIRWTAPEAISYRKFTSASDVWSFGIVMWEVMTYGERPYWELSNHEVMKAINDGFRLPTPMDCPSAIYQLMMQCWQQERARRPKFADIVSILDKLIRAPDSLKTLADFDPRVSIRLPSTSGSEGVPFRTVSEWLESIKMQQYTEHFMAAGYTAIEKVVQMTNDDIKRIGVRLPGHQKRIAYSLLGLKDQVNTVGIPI

| Binder | binding result [1] | binding result [2] |
| --- | --- | --- |
| 抗-EphA2抗体1H3 (antibody, V domains shown) VH: EVQLLESGGGLVQPGGSLRLSCAASGFTFSMYAMRWVRQAPGKGLEWVSVIGPSGGWTPYADSVKGRFTISRDNSKNTLYLQMNSLRAEDTAVYYCARDRGIYGMDVWGQGTTVTVSS VL: DIQMTQSPSFLSASVGDRVTITCRASQGISSYLAWYQQKPGKAPKLLIYAASTLQSGVPSRFSGSGSGTEFTLTISSLQPEDFATYYCLELNNYPFTFGLGTKVHIK | binds | binds |
| 抗-EphA2抗体3F2 (antibody, V domains shown) VH: EVQLVESGGGVVRPGGSLRLSCAASGFTVSDYSMNWVRQAPGKGLEWIGFIRNKANAYTTEYSASVKGRFTISRDDSKNTLYLQMNSLKTEDTAVYYCTTYPRYHAMDSWGQGTMVTVSS VL: AIQLTQSPSSLSASVGDRVTITCRASQSISNNLHWYLQKPGQSPQLLIYYGFQSISGVPSRFSGSGSGTDFTLTISSLQPEDFATYYCQQANSWPLTFGGGTKLEIK | binds | binds |
